Experimental data taken from the supplement of paper PMC10567573.
± gives the standard deviation.

Assay: protein stability index of a GFP-peptide fusion (GPS, HEK-293T) (PSI 1-6); higher = more stable
[1] = treatment: DMSO, c terminus: a fixed tail appended
[2] = treatment: MLN4924 1 uM, 8 h, c terminus: a fixed tail appended
[3] = treatment: DMSO, c terminus: native
[4] = treatment: MLN4924 1 uM, 8 h, c terminus: native
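Note: 24-mer peptide tiles fused after GFP, lentivirally expressed, FACS-sorted into six equal bins by GFP/DsRed ratio, decoded by Illumina sequencing, PSI is the read-weighted mean bin number.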

Sequence	protein stability index [1]	protein stability index [2]	protein stability index [3]	protein stability index [4]
PDMETKLLFMTSRVRFGQQKRYQD [INTS3]	2.92 ± 0.24	3.09 ± 0.32	–	–
RPGPSASAASSAAAGEPLECPTCG [RNF208]	5.3 ± 0.2	5.3 ± 0.28	–	–
IVIGILSAYISNYAFANVFHGWKY [SLC2A12]	3.01 ± 0.51	3.25 ± 0.68	–	–
RRKEEEVQQQKLAEERRRQNLQEE [FAF2]	5.56 ± 0.18	5.45 ± 0.37	–	–
SDAWTYCISKNEWIQFNHPYTEKP [KLHDC2]	2.34 ± 0.18	2.37 ± 0.26	–	–
RSLLGYDPQILQMLKEEHQIILEN [RAD54B]	2.94 ± 0.19	3.11 ± 0.21	–	–
NISDLPFLAENSAFPKMALQAKQD [LCOR]	4.42 ± 0.2	4.39 ± 0.2	–	–
LISQCGKPVVNVSYRPAYDQGGPV [DUSP5]	2.61 ± 0.38	2.6 ± 0.42	–	–
LSLTSSASRLLTTALTSFCAKYTY [FANCE]	2.72 ± 0.48	2.81 ± 0.67	–	–
HCMAPPLLHLDLKPANILLDAHYH [RIPK4]	2.27 ± 0.23	2.38 ± 0.22	–	–
SLVYYGLTLSAGDLGGSIYANLAL [SLC22A15]	3.02 ± 0.6	2.91 ± 0.45	–	–
SLTDDKYDVAMNRAKDLVELDPEV [GOLPH3L]	5.37 ± 0.16	5.4 ± 0.26	–	–
MTEWFMCAFSRTLPWSSVLRVWDM [TBC1D10A]	3.32 ± 0.42	2.84 ± 0.23	–	–
GSQLPKPRMLRESGHGDAHLQEYA [FATE1]	4.38 ± 0.25	4.5 ± 0.11	–	–
PVESHIQKNKKILKSAKDLPPDAL [KMT2E]	4.86 ± 0.24	4.71 ± 0.44	–	–
NKRERSKLKNLRRKQRRRERWLQK [RNF180]	4.32 ± 0.24	4.49 ± 0.38	–	–
MSFLSRQQPPPPRRAGAACTLRQK [WEE1]	3.94 ± 0.2	3.88 ± 0.24	–	–
WDPACLPLPPPPPAFKSMEVANFY [CEBPB]	3.02 ± 0.28	3.28 ± 0.47	–	–
NNFDNLDFDLDLVPWESDIWDINN [ATF6]	3.2 ± 0.21	3.46 ± 0.11	–	–
LLAKMFGAKDSELASQNKPLWQCY [PDS5B]	2.57 ± 0.66	2.3 ± 0.31	–	–
AGDAEVCPTPARLATTEKKTEQQR [NOP53]	5.37 ± 0.23	5.44 ± 0.16	–	–
STPRPPEASSSPPEGSQDRNTSWG [TLE6]	5.32 ± 0.17	5.291 ± 0.047	–	–
IPPSSDRTPEILKKALSGLSSRWK [CDS1]	2.39 ± 0.49	2.29 ± 0.46	–	–

Sequence	protein stability index [1]	protein stability index [2]	protein stability index [3]	protein stability index [4]
LFVTVTAVNLSVSTLPSLREEEEQ [KCNG1]	2.13 ± 0.34	2.18 ± 0.45	–	–
AEGAVPETQTLTGWSKGFIGMHRE [RHOBTB1]	4.09 ± 0.12	4 ± 0.23	–	–
AHWQCGATLTQVSVEYGYRPGATA [FCHO1]	2.29 ± 0.18	2.24 ± 0.49	–	–
NLSKSRKILRSMSRKVTTNKLLLS [VTI1B]	2.85 ± 0.35	2.92 ± 0.29	–	–
YSYLVLLFPVFLATDYLRYKPVVL [SLC19A2]	3.56 ± 0.34	3.01 ± 0.51	–	–
KQTIGNSCKACGYRGMLDTHHKLC [EIF5]	2.8 ± 0.37	2.81 ± 0.5	–	–
VILFSSAVYFAEADDPTSGFSSIP [KCNA3]	3.01 ± 1.6	2.56 ± 1.1	–	–
IKIVLINSFGAILQGSLFGLAGLL [SLC29A1]	2.72 ± 0.32	3.25 ± 0.2	–	–
MISAAQLLDELMGRDRNLAPDEKR [LUC7L3]	3.87 ± 0.19	4.11 ± 0.21	–	–
GAQVKELEEKCQQPASELLQDVRV [TRIM15]	5.4 ± 0.36	5.43 ± 0.12	–	–
FRKIKDHFCPFENQFHTEIQILA [C8orf76]	–	–	2.69 ± 1	3.26 ± 0.27
KQLKPWCWYCNRDFDDEKILIQHQ [ZNF207]	2.21 ± 0.45	2.46 ± 0.59	–	–
VYSQASTMSIPVAMETDGPLFEDV [PPP2R5C]	3.94 ± 0.31	4.14 ± 0.15	–	–
PILSRSTSTGSAASSGSNSSASSE [SPRY1]	5.42 ± 0.22	5.44 ± 0.19	–	–
CIPASSSFVYGAVPIGASIYVIGD [GAN]	2.97 ± 0.65	2.48 ± 0.61	–	–
QFYGYLSQQQNMMQDYVRTGTYQR [CARM1]	2.47 ± 0.086	2.72 ± 0.22	–	–
GLTDVSQIITVTVQTGLDQYQQVP [IQUB]	2.26 ± 0.085	2.47 ± 0.23	–	–
RLGQRQPPPSEPTQGPEIVPRGAG [DNAJC4]	4.83 ± 0.15	4.84 ± 0.12	–	–
APQHPAASALRTRMTGGRPPLPPP [DYRK1B]	4.38 ± 0.15	4.41 ± 0.23	–	–
VTVRVPTHEEGSYLFWEFATDNYD [ACBD3]	2.19 ± 0.34	2.31 ± 0.62	–	–
RADSFKVSYQLADGGEPQSVQVDG [TNXB]	4.89 ± 0.15	5.01 ± 0.22	–	–
KAYGWCSELIRHRRVHARKEPSH [ZNF232]	–	–	2.75 ± 0.2	2.51 ± 0.44
ELEGDVAEPLAGPACVTVILPSCV [KLHL14]	3.32 ± 0.54	3.14 ± 0.14	–	–

Sequence	protein stability index [1]	protein stability index [2]	protein stability index [3]	protein stability index [4]
GVPPLKLCKNLNREAQQYSEALAS [GLIPR2]	3.89 ± 0.44	3.96 ± 0.14	–	–
PLLPPAMGTEPAPSAPEALHSLPG [TBX6]	5.07 ± 0.074	5.06 ± 0.16	–	–
MSMNNSKQLVSPAAALLSNTTCQT [PTGFR]	3.79 ± 0.21	3.99 ± 0.12	–	–
GTPSPSRSRDSNSGPEEPLLEEEE [RTN2]	5.49 ± 0.24	5.72 ± 0.27	–	–
EVTADDRKVKSTITLDGGVLVHVQ [FABP4]	3.7 ± 0.37	3.99 ± 0.17	–	–
NVNRTTANNDHTVLSLACAGGHLA [ANKRD17]	3.57 ± 0.3	3.7 ± 0.36	–	–
LKLSIMSEEELTHIFGDLDSYIPL [NET1]	2.21 ± 0.1	2.28 ± 0.2	–	–
HFWGEKNHGFEVLYHSVKQGPIST [FCHO1]	2.44 ± 0.52	2.48 ± 0.43	–	–
WTMQAYERNFWDPSPQLDTQQEIK [WDR41]	3.16 ± 0.19	3.46 ± 0.47	–	–
WSQPITTGKAPSPRAAHACATVGN [KLHDC2]	3.84 ± 0.3	3.92 ± 0.2	–	–
KPKPPPNSEGEQGPNGSQNSSYSQ [CCNC]	5.43 ± 0.14	5.55 ± 0.18	–	–
LAGGYTSSLACHRALQDAFSGLFW [MNAT1]	2.44 ± 0.12	2.45 ± 1	–	–
AAVSRKKKRRMGTYSLVPKKKTKV [EHMT1]	4.29 ± 0.32	4.32 ± 0.24	–	–
EYRQKHGVPPLKLCKNLNREAQQY [GLIPR2]	3.42 ± 0.16	3.4 ± 0.28	–	–
GLHYIAFRKVKQMHLNFMDEKDRI [DNAJC4]	2.54 ± 0.29	2.65 ± 0.35	–	–
WKKQQKCDECGKIFSQSSALILHQ [ZNF396]	2.54 ± 0.25	2.91 ± 0.49	–	–
IEARRRALKRFVNLVARHPLFSED [SNX8]	2.37 ± 0.67	2.61 ± 0.43	–	–
PTLWTEQVKSRQNKTNKNSVSSCD [SMOC2]	4.81 ± 0.28	4.84 ± 0.12	–	–
KGCSLEQISMELAKVNYVKNNICF [SLC2A12]	2.22 ± 0.35	2.27 ± 0.28	–	–
DYIMDEDQSKLAGLLDLNNAILQL [ESRRG]	2.35 ± 0.25	2.6 ± 0.39	–	–
ERAELAASLGLTQTQVKIWFQNKR [DLX1]	3.59 ± 0.34	3.87 ± 0.44	–	–
FAWSQGHRTVKLVPWSQCLQNFLL [WSB1]	1.99 ± 0.83	2.3 ± 0.031	–	–
SEEGSWAQTLAYGDMNHEWIGNEW [PPFIA4]	3.89 ± 0.41	3.8 ± 0.28	–	–

Sequence	protein stability index [1]	protein stability index [2]	protein stability index [3]	protein stability index [4]
RITKDNRRHCQACRLKRCVDIGMM [VDR]	2.42 ± 0.36	2.68 ± 0.29	–	–
ENELMISYLMFLQILVYFSFMSW [FAM98B]	–	–	3.17 ± 0.67	3.26 ± 0.33
PDQAYDFLLKFLLVGDRDVGKSEI [RAB40A]	2.46 ± 0.39	2.35 ± 0.3	–	–
VSCGFGGGAGSGFGGGYGGGLGGG [KRT13]	2.32 ± 0.35	2.2 ± 0.5	–	–
FPSLQVTAILIECGADVNVRDSDD [FEM1C]	2.44 ± 0.18	2.37 ± 0.39	–	–
IRAMGRLKIDFGDSARADDARQLF [GNAI1]	2.63 ± 0.25	2.77 ± 0.14	–	–
ASKLKETSPLTAEKLCIYTDNSIK [CCND2]	4 ± 0.18	4.05 ± 0.092	–	–
EKEAKDLTELVQRRITYLQNPKDC [FUT8]	4.76 ± 0.17	4.9 ± 0.13	–	–
LQLGEGVEFDVLPAFDALGQLTGG [OAS1]	2.37 ± 0.35	2.72 ± 0.51	–	–
ALCQGLYFHINQTLREAHFHSLQH [FAM104A]	2.81 ± 0.54	2.8 ± 0.51	–	–
DAATTDELSSLGSDSEANGFAERR [TBC1D10A]	5.47 ± 0.34	5.42 ± 0.23	–	–
NKVKVLDAPVPDCLGVHCDFHQGL [FSD1]	3.26 ± 0.078	3.43 ± 0.24	–	–
GGKNCKKPAEYGYVSLGRLGAAKG [CEBPB]	3.64 ± 0.27	3.52 ± 0.54	–	–
ALTNIQNCMAEKRETVLIETQLKA [C8orf76]	3.19 ± 0.34	3.09 ± 0.47	–	–
REKPFKCQECGKTFRVSSDLIKHQ [ZNF75A]	4.73 ± 0.19	4.72 ± 0.32	–	–
SEGRRVSFGVDEEERVRVLQGVRL [CHCHD6]	4.38 ± 0.19	4.38 ± 0.3	–	–
KKAAESLRRSVEKYNSARADFEQK [FCHO1]	4.2 ± 0.18	4.43 ± 0.29	–	–
EEFCEFVKSNTEQMREAFATAFSK [ZBED1]	3.76 ± 0.27	3.98 ± 0.32	–	–
LDVVDNQTEKLDTNITEVDAASVY [CASP6]	5.06 ± 0.15	5.25 ± 0.15	–	–
DTHNTNNLDTEELCEYFSQHLGEY [NECAB1]	4.41 ± 0.36	4.17 ± 0.33	–	–
